{
  "source": "patent US20210324058A1",
  "about": "(BRIGHAM AND WOMEN S HOSPITAL, published 2021)",
  "key": {"[1]": {"molecular_target": "T1, recombinant human NEDD9 (neural precursor cell expressed, developmentally down-regulated 9), OriGene TP307200 (human, UniProt Q14511 1-834)", "T1 construct": "Bought recombinant protein; In microscale thermophoresis it was labelled with the dye NT-647-NHS; also called recombinant NEDD9; purified human NEDD9", "T1 sequence (looked up)": "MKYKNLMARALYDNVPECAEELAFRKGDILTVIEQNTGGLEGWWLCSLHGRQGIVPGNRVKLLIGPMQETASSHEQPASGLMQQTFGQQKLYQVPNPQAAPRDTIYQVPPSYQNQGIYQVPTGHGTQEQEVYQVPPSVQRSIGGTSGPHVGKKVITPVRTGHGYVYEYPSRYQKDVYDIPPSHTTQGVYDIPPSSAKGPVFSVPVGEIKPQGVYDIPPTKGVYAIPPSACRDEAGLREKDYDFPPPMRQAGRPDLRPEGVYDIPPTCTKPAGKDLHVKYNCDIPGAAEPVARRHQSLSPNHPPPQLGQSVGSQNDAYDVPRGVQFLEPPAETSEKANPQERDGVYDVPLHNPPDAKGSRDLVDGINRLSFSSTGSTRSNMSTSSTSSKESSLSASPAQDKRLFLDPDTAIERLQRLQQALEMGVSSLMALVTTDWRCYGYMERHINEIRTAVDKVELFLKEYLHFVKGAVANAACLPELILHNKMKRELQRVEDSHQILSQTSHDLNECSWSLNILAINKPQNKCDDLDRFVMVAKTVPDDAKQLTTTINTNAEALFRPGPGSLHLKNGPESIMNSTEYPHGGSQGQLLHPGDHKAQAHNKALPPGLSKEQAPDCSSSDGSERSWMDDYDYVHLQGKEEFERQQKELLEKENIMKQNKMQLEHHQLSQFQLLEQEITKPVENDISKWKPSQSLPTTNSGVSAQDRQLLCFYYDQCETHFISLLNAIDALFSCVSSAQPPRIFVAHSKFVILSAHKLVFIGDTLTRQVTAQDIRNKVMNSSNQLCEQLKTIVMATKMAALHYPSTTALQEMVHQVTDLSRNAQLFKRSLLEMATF", "assay": "microscale thermophoresis, labelled NEDD9 20 nM, P-Selectin titrated", "experimental": "(§1) FIGS. 4A-E. P-Selectin binds the NEDD9 substrate domain. (A) HPAEC plasma membrane fractions were incubated with recombinant P-Selectin (0.5-1.0 μg), and liquid chromatography-mass spectrometry (LC-MS) was performed on samples following anti-P-Selectin immunoprecipitation. The MS2 spectra for each of the two detected NEDD9 peptide sequences, both within the substrate domain, are shown: K.[…].D (AA: 91-102; SEQ ID NO:9) (m z 677.36735 at retention time […]) (N9-P1) and K.[…].G (AA: 191-211; SEQ ID NO:10) (m/z 808.77731 at retention time […]) (N9-P2) (N=2 replicates for N=2 iterations). Underlining indicates a YxxP sequence. (B) HPAEC plasma membrane fractions were incubated with exogenous P-Selectin and co-immunoprecipitation for P-Selectin and NEDD9 was performed. PM, plasma membrane; UN, untreated. Varying concentrations of P-Selectin (ligand) (2 μM-0.5 nM) were co-incubated with NEDD9 (receptor) (20 nM) and microscale thermophoresis was performed to assess macromolecular interactions between these proteins. […]\n(§2) Microscale Thermophoresis. […] In preliminary studies, we determined that Tris buffer containing 10% glycerol, 1% BSA, 0.05% Tween-20 and 5 mM DDT was an optimal buffer to minimize sample aggregation and adsorption in the capillary tube.³⁹ For experiments, NEDD9 (20 nM) was incubated with decreasing concentrations of P-Selectin (2 μM-0.5 nM) and MST scan was performed."}, "[2]": {"molecular_target": "T1, recombinant human NEDD9 (neural …)", "assay": "microscale thermophoresis; dye-labelled NEDD9 20 nM, P-Selectin titrated 2 µM-0.5 nM, N=2", "experimental": "as §1, §2"}, "[3]": {"molecular_target": "T2, endogenous human NEDD9 of human pulmonary artery endothelial cells (lysates and plasma membrane fractions) (human, UniProt Q14511 1-834, limits assumed)", "T2 construct": "Endogenous protein in cell material; also called NEDD9 in HPAECs; NEDD9 p55 fragment", "T2 sequence (looked up)": "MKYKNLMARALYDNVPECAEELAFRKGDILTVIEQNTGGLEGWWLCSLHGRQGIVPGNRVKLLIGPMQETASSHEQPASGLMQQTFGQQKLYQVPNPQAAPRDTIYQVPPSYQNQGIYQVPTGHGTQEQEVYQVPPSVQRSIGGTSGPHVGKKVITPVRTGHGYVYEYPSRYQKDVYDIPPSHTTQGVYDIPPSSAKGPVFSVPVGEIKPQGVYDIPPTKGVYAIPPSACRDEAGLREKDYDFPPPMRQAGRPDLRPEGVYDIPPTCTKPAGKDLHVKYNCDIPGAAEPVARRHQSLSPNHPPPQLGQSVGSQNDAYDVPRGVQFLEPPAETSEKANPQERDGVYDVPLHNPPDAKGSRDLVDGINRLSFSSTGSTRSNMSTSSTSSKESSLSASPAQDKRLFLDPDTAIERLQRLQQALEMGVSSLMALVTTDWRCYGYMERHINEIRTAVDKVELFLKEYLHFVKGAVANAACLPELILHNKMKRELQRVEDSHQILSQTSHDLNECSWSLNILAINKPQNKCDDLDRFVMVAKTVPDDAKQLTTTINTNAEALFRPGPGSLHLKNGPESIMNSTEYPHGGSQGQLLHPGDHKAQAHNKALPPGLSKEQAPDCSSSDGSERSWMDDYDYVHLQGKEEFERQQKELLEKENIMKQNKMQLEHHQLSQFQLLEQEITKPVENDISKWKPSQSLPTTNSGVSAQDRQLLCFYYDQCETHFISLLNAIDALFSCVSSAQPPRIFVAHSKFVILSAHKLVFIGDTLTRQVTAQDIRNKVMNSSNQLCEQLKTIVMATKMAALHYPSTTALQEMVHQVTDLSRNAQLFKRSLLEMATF", "assay": "co-immunoprecipitation from HPAEC plasma membrane fractions incubated with recombinant P-Selectin for 1 hr", "experimental": "Magnetic beads (Bio-Rad SureBeads) were resuspended in 100 μl solution (1 mg at 10 mg/mL), magnetized, and serially washed with 1 mL PBS+0.1% Tween 20 (PBS-T). Primary antibody (10 μg) (Table 2) was added to the resuspended beads in a final volume of 200 μl and rotated at room temperature for 10 min. The beads were then magnetized and serially washed with 1 mL PBS-T before incubation with the antigen-containing HPAEC plasma membrane lysate (250-500 μl) plus recombinant P-Selectin (R&D Systems) (0.5-1.0 μg) for 1 hr at room temperature. In the cell-free immunoprecipitation experiment, the antibody-labeled beads were incubated with recombinant NEDD9 (Origene)³⁹ (5 ng) and recombinant P-Selectin (5 ng) in the presence of IgG₁ control, msAb-N9-P1 (10-20 uM), or msAb-N9-P2 (10-20 μM) for 1 hr at room temperature. […]\nNext, LC-MS was performed on in-gel trypsin-digested lysates, and identified only two NEDD9 peptide sequences, both within the substrate domain: K.[…].D (AA: 91-102; SEQ ID NO:9) (N9-P1) and K.[…].G (AA: 191-211; SEQ ID NO:10) (N9-P2) (N=2 replicates for N=2 iterations) (FIG. 4A). […] Plasma membrane fractions from HPAECs were incubated with V-control or exogenous (recombinant) P-Selectin for 1 hr, and P-Selectin-NEDD9 complex formation was assessed by co-immunoprecipitation."}},
  "data": [
    {"binder": "recombinant P-Selectin/CD62P, R&D Systems ADP3-200 (other, human, UniProt P16109 42-771, looked up, Bought recombinant protein; Species is read from 'Purified human NEDD9 and P-Selectin/CD62P'; also called exogenous P-Selectin) WTYHYSTKAYSWNISRKYCQNRYTDLVAIQNKNEIDYLNKVLPYYSSYYWIGIRKNNKTWTWVGTKKALTNEAENWADNEPNNKRNNEDCVEIYIKSPSAPGKWNDEHCLKKKHALCYTASCQDMSCSKQGECLETIGNYTCSCYPGFYGPECEYVRECGELELPQHVLMNCSHPLGNFSFNSQCSFHCTDGYQVNGPSKLECLASGIWTNKPPQCLAAQCPPLKIPERGNMTCLHSAKAFQHQSSCSFSCEEGFALVGPEVVQCTASGVWTAPAPVCKAVQCQHLEAPSEGTMDCVHPLTAFAYGSSCKFECQPGYRVRGLDMLRCIDSGHWSAPLPTCEAISCEPLESPVHGSMDCSPSLRAFQYDTNCSFRCAEGFMLRGADIVRCDNLGQWTAPAPVCQALQCQDLPVPNEARVNCSHPFGAFRYQSVCSFTCNEGLLLVGASVLQCLATGNWNSVPPECQAIPCTPLLSPQNGTMTCVQPLGSSSYKSTCQFICDEGYSLSGPERLDCTRSGRWTDSPPMCEAIKCPELFAPEQGSLDCSDTRGEFNVGSTCHFSCDNGFKLEGPNNVECTTSGRWSATPPTCKGIASLPTPGVQCPALTTPGQGTMYCRHHPGTFGFNTTCYFGCNAGFTLIGDSTLSCRPSGQWTAVTPACRAVKCSELHVNKPIAMNCSNLWGNFSYGSICSFHCLEGQLLNGSAQTACQENGHWSTTVPTCQAGPLTIQEA", "values": [
      {"measurement": "EC50 (read off the curve)", "setting": "[1]", "value": "~60", "unit": "nM"},
      {"measurement": "Kd", "setting": "[2]", "value": 13.9, "unit": "nM"},
      {"measurement": "fold increase of NEDD9:P-Selectin complex formation against V-control", "setting": "[3]", "value": 3, "unit": "fold"}
    ]}
  ]
}
